Data taken from patent publication US20040186048.

Target: Ferritin-H (ferritin heavy chain) (Homo sapiens) (UniProt P02794)
Assay: cell_activity
Details: CV-1 cells, EKLF-stimulated beta-CAT reporter

Chain of Ferritin-H (ferritin heavy chain) (Homo sapiens) (P02794 2-183): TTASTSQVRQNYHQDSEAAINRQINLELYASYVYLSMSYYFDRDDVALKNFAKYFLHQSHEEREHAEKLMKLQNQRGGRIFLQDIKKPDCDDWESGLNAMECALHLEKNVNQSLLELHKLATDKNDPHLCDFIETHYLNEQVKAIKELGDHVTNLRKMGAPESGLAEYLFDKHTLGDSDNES

**Q.** How did the activity turn out when beta-globin 5' region -610/+20 (630 bp) was run?
**A.** The activity was 62 % repression.
